Laboratory results taken from publication PMC13343191, “APE1 binds and processes abasic sites present in i-motif DNA and cooperates with PCBP1 in maintenance of telomeric stability”.

Columns and labels:
[1] = target: APE1 WT (UniProt P27695 1-318); assay: southwestern blot; switchSENSE: MES pH 5.5 (APE1) or 6.5 (iMab); UV-crosslinking: 50 mM Tris-acetate pH 5.5, 50 mM KCl, 1 mM DTT, 0.8% glycerol, 0.4 mM EDTA, 4°C; NMR: 50 mM NaCl, 10 mM MES pH 5.5, 1 mM DTT, 25°C; SMADNE: 25 mM MES pH 5.5, 150 mM NaCl, 0.1 mg/ml BSA, 1 mM DTT, 1 mM Trolox; details: protein: recombinant; tags: GST (Factor Xa cleavable, pGEX-3X) or His/GFP (pTAC-MAT); label: 5' IRDye800 (SWB, UV-crosslinking); i-motif, intramolecular
Sequence of APE1 WT (P27695 whole entry): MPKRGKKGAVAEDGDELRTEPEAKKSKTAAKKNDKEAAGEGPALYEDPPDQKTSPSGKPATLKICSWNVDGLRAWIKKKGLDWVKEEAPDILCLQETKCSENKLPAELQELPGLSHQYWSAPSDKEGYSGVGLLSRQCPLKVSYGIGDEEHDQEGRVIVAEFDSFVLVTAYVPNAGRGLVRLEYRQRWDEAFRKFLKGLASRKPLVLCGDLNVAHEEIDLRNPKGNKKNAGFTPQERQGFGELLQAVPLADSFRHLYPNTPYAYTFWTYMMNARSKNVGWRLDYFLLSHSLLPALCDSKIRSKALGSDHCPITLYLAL

[2] = target: APE1 NΔ33 (UniProt P27695 34-318, del1-33); assay: as above; details: protein: recombinant; tags: GST (Factor Xa cleavable, pGEX-3X) or His/GFP (pTAC-MAT); label: 5' IRDye800 (SWB, UV-crosslinking); i-motif, intramolecular
Sequence of APE1 NΔ33 (P27695 34-318, stated change not applied): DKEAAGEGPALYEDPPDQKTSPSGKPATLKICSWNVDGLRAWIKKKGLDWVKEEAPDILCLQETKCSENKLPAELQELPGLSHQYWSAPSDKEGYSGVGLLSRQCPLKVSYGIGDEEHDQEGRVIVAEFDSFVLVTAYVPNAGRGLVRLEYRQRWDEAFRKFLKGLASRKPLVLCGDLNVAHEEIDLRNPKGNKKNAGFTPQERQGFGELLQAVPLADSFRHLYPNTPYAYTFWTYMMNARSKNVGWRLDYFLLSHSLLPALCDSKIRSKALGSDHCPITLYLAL

## TAACCCTAACCCTAACCCTAACCCTAA (structured_DNA) [C-NAT]
[1]
  binding result: binds
[2]
  binding result: binds
